The target of assay [1] is Human CXCR7 (human) (UniProt P25106). Nature of the assay: cell-based or functional assay.
Assay [2] shares this target. Nature of the assay: [125I]-CXCL12 displacement on NIH3T3-hCXCR7 cells, relative to cold SDF-1.
For assay [3] the target is unchanged. The experiment in a line: competition FACS with 4 nM biotinylated SDF-1 on HEK-hCXCR7 cells.
The target is the same in assay [4]. Nature of the assay: [125I]-CXCL12 displacement on NIH3T3-hCXCR7 cells.

pKi: −log10 of the molar value. Where only a bound is given, the exact number is not on record here.

What is called pKi is −log10 of the Ki, conventionally taken in molar units.

Sequence of Human CXCR7 (human) (P25106 whole entry): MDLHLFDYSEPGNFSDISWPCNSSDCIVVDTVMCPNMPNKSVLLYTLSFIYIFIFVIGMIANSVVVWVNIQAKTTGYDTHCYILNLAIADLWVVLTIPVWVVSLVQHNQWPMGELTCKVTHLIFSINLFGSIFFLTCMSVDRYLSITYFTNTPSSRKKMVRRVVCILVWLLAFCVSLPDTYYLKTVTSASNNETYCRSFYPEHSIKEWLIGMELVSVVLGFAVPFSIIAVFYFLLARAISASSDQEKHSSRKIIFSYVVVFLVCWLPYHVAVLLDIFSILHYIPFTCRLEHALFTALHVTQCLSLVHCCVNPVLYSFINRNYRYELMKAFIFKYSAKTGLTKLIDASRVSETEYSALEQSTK

As for Mab 8F11 (Biolegend) (antibody), in the assay with Human CXCR7 (human) [1], the β-arrestin recruitment in absence of HSA [IC50] was determined as 12.9 and the β-arrestin recruitment in presence of HSA [IC50] turned out to be 34.8. The substance further came in with an Average SDF-1 displacement (%) with Human CXCR7 (human) [2] of 73%. The competition relative to unlabelled SDF-1 (%) with Human CXCR7 (human) [3] was greater than 95%. In the assay with Human CXCR7 (human) [4], this substance showed a negative logarithm of the Ki (pKi) of 8.23.
